The numbers were not newly measured in paper PMC4488278, which cites them from elsewhere.

For the series, the target named is EGFR (Homo sapiens) (UniProt P00533).

Turning to EGF (from UniProt P01133), the Kd (as a rule, the equilibrium constant for the complex coming apart) was 1 nM.
